Read-outs that look alike come from different tables or passages of the source. Square brackets hold non-standard residues; d marks the D form. Ends that are not written are not given here. Peptide text beside a SMILES is read from it. Cit = NC(=O)NCCC[C@H](N)C(=O)O
Tests used:
HLA-DRB1*04:04 = HLA-DRB1*04:04 (Homo sapiens, UniProt P01903+P01911, A100R/A169T/F76Y/I96L/K127E/L162R/M171V/N62H/P40V/Q125Y/R42H/S133A/S149N/S66Y/V209L/W38E); test: Competition peptide-binding assay, HLA-DRB1*04:04
Procedure: Stepwise binding analysis of 15-mer peptides derived from both native and citrullinated α-enolase to HLA-DRB1*01, *04:01, and *04:04 was performed using the ProImmune Class II Reveal assay (ProImmune, Oxford, UK). Relevant peptides were thereafter synthesized by GenScript (Piscataway, NJ, USA) and used for competition peptide-binding assays. […] Finally, peptide-binding affinity to the three different HLA alleles was assessed in direct binding assays in which N-terminally biotinylated epitopes (GenScript, Piscataway, NJ, USA) were incubated at concentrations from 5 to 0.05 μM with plate-bound relevant HLA-DRB1 molecules in the absence of a competitor peptide ([22]). The inflection point of the binding curve of a known binding epitope was used as a cutoff to separate weakly binding epitopes from background. […]

HLA-DRB1*01:01 = HLA-DRB1*01:01 (Homo sapiens, UniProt P01903+P01911, A100R/D57E/F55L/F60I/F76Y/I96L/L162R/M171V/P40L/Q125E/R42F/V115G/Y59C); test: Competition peptide-binding assay, HLA-DRB1*01:01
Procedure: Stepwise binding analysis of 15-mer peptides derived from both native and citrullinated α-enolase to HLA-DRB1*01, *04:01, and *04:04 was performed using the ProImmune Class II Reveal assay (ProImmune, Oxford, UK). Relevant peptides were thereafter synthesized by GenScript (Piscataway, NJ, USA) and used for competition peptide-binding assays. […] Finally, peptide-binding affinity to the three different HLA alleles was assessed in direct binding assays in which N-terminally biotinylated epitopes (GenScript, Piscataway, NJ, USA) were incubated at concentrations from 5 to 0.05 μM with plate-bound relevant HLA-DRB1 molecules in the absence of a competitor peptide ([22]). The inflection point of the binding curve of a known binding epitope was used as a cutoff to separate weakly binding epitopes from background.
We decided to make use of HLA-DRB1*01:01 as a representative model for HLA-DRB1*01.

HLA-DRB1*04:01 = HLA-DRB1*04:01 (Homo sapiens, UniProt P01903+P01911, A100K/A169T/F76Y/I96L/K127E/L162R/M171V/N62H/P40V/Q125Y/R42H/S133A/S149N/S66Y/V115G/V209L/W38E); test: biochemical
[1] = molecular target: HLA-DRB1*04:01 (plate-bound, peptide-binding assays) (human); test: competition peptide-binding assay on plates
[2] = molecular target: HLA-DRB1*01:01 (plate-bound, peptide-binding assays) (human); test: competition peptide-binding assay on plates
[3] = molecular target: HLA-DRB1*04:04 (plate-bound, peptide-binding assays) (human); test: competition peptide-binding assay on plates
[4] = competition with 0.02 μM biotinylated GAD65 270–285, plate-bound HLA-DRB1*04:04, increasing peptide concentrations, read-out: IC50 *04:04
[5] = competition with 0.02 μM biotinylated HA306–318, plate-bound HLA-DRB1*01:01, increasing peptide concentrations, read-out: IC50 *01:01

Row | Molecule | IC50 (HLA-DRB1*04:04; [4]) | IC50 (HLA-DRB1*01:01; [5]) | IC50 [1] | IC50 [2] | IC50 [3] | also measured
1 | CC[C@H](C)[C@H](N)C(=O)N[C@@H](Cc1ccccc1)C(=O)N[C@@H](CC(=O)O)C(=O)N[C@@H](CO)C(=O)N[C@@H](CCCNC(N)=O)C(=O)NCC(=O)N[C@@H](CC(N)=O)C(=O)N1CCC[C@H]1C(=O)N[C@H](C(=O)N[C@H](C(=O)N[C@@H](CCC(=O)O)C(=O)N[C@@H](CC(=O)O)C(=O)N[C@H](C(=O)N[C@@H](CC(C)C)C(=O)N[C@@H](Cc1ccccc1)C(=O)O)C(C)C)C(C)C)[C@@H](C)O [cit11] (H-IFDS[Cit]GNPTVEDVLF-OH) | – | – | – | – | – | IC50 (HLA-DRB1*04:04): 1.7 µM; IC50 (HLA-DRB1*01:01): 25 µM
2 | CC(C)C[C@H](NC(=O)CNC(=O)[C@H](CCCCN)NC(=O)[C@H](CO)NC(=O)[C@@H](N)[C@@H](C)O)C(=O)N[C@@H](Cc1ccccc1)C(=O)N[C@@H](CCCNC(N)=O)C(=O)N[C@@H](C)C(=O)N[C@@H](C)C(=O)N[C@H](C(=O)N1CCC[C@H]1C(=O)N[C@@H](CO)C(=O)NCC(=O)N[C@@H](C)C(=O)N[C@@H](CO)C(=O)O)C(C)C [cit26] (H-TSKGLF[Cit]AAVPSGAS-OH) | 0.5 µM | 1.9 µM | – | – | – | IC50 (HLA-DRB1*04:01): 1.5 µM
3 | CC[C@H](C)[C@H](NC(=O)[C@@H](N)C(C)C)C(=O)NCC(=O)N[C@@H](CCSC)C(=O)N[C@@H](CC(=O)O)C(=O)N[C@H](C(=O)N[C@@H](C)C(=O)N[C@@H](C)C(=O)N[C@@H](CO)C(=O)N[C@@H](CCC(=O)O)C(=O)N[C@@H](Cc1ccccc1)C(=O)N[C@@H](Cc1ccccc1)C(=O)N[C@@H](CCCNC(N)=O)C(=O)N[C@@H](CO)C(=O)NCC(=O)O)C(C)C [cit241] (H-VIGMDVAASEFF[Cit]SG-OH) | 0.2 µM | 42 µM | – | – | – | IC50 (HLA-DRB1*04:01): 2.5 µM
4 | CC[C@H](C)[C@H](NC(=O)[C@H](CCCNC(N)=O)NC(=O)[C@@H](N)CCCCN)C(=O)N[C@@H](C)C(=O)N[C@@H](CCCCN)C(=O)N[C@@H](C)C(=O)N[C@H](C(=O)N[C@@H](CC(N)=O)C(=O)N[C@@H](CCC(=O)O)C(=O)N[C@@H](CCCCN)C(=O)N[C@@H](CO)C(=O)N[C@@H](CS)C(=O)N[C@@H](CC(N)=O)C(=O)N[C@@H](CS)C(=O)N[C@@H](CC(C)C)C(=O)O)C(C)C [cit326] (H-K[Cit]IAKAVNEKSCNCL-OH) | 0.7 µM | > 50 µM | – | – | – | –
5 | CC[C@H](C)[C@H](NC(=O)[C@H](Cc1c[nH]cn1)NC(=O)[C@H](CCC(=O)O)NC(=O)[C@@H](NC(=O)[C@H](C)NC(=O)[C@H](CCCCN)NC(=O)[C@H](CO)NC(=O)[C@@H](NC(=O)CNC(=O)[C@H](CCCCN)NC(=O)CNC(=O)[C@H](CCSC)NC(=O)[C@H](Cc1ccc(O)cc1)NC(=O)[C@@H](N)CCCNC(=N)N)C(C)C)C(C)C)C(=O)N[C@@H](CC(N)=O)C(=O)O [compound 56] (H-RYMGKGVSKAVEHIN-OH; N-terminus and C-terminus assumed) | > 50 µM | > 50 µM | – | – | – | –
6 | CC[C@H](C)[C@H](NC(=O)[C@H](CCCNC(=N)N)NC(=O)[C@H](CCSC)NC(=O)[C@H](C)NC(=O)[C@H](CCC(=O)O)NC(=O)[C@H](CCCNC(=N)N)NC(=O)[C@H](Cc1ccccc1)NC(=O)[C@H](CC(N)=O)NC(=O)[C@H](C)NC(=O)[C@H](C)NC(=O)CNC(=O)[C@@H](NC(=O)[C@@H]1CCCN1C(=O)[C@@H](N)CC(C)C)C(C)C)C(=O)NCC(=O)O [compound 171] (H-LPVGAANFREAMRIG-OH; N-terminus and C-terminus assumed) | > 50 µM | > 50 µM | – | – | – | –
7 | CC[C@H](C)[C@H](NC(=O)[C@@H](N)C(C)C)C(=O)NCC(=O)N[C@@H](CCSC)C(=O)N[C@@H](CC(=O)O)C(=O)N[C@H](C(=O)N[C@@H](C)C(=O)N[C@@H](C)C(=O)N[C@@H](CO)C(=O)N[C@@H](CCC(=O)O)C(=O)N[C@@H](Cc1ccccc1)C(=O)N[C@@H](Cc1ccccc1)C(=O)N[C@@H](CCCNC(=N)N)C(=O)N[C@@H](CO)C(=O)NCC(=O)O)C(C)C [compound 241] (H-VIGMDVAASEFFRSG-OH) | 0.5 µM | 35 µM | – | – | – | IC50 (HLA-DRB1*04:01): 2 µM
8 | CC[C@H](C)[C@H](N)C(=O)N[C@@H](Cc1ccccc1)C(=O)N[C@@H](CC(=O)O)C(=O)N[C@@H](CO)C(=O)N[C@@H](CCCNC(=N)N)C(=O)NCC(=O)N[C@@H](CC(N)=O)C(=O)N1CCC[C@H]1C(=O)N[C@H](C(=O)N[C@H](C(=O)N[C@@H](CCC(=O)O)C(=O)N[C@@H](CC(=O)O)C(=O)N[C@H](C(=O)N[C@@H](CC(C)C)C(=O)N[C@@H](Cc1ccccc1)C(=O)O)C(C)C)C(C)C)[C@@H](C)O [peptide 11] (H-IFDSRGNPTVEDVLF-OH; N-terminus and C-terminus assumed) | > 50 µM | > 50 µM | – | – | – | –
9 | CC[C@H](C)[C@H](NC(=O)[C@H](CCCNC(=N)N)NC(=O)[C@@H](N)CCCCN)C(=O)N[C@@H](C)C(=O)N[C@@H](CCCCN)C(=O)N[C@@H](C)C(=O)N[C@H](C(=O)N[C@@H](CC(N)=O)C(=O)N[C@@H](CCC(=O)O)C(=O)N[C@@H](CCCCN)C(=O)N[C@@H](CO)C(=O)N[C@@H](CS)C(=O)N[C@@H](CC(N)=O)C(=O)N[C@@H](CS)C(=O)N[C@@H](CC(C)C)C(=O)O)C(C)C [peptide 326] (H-KRIAKAVNEKSCNCL-OH) | 0.7 µM | > 50 µM | – | – | – | –
10 | α-enolase peptide Cit11 (residues 11–25), citrullinated | – | – | 2.2 µM | 25 µM | 1.7 µM | –
11 | TSKGLFRAAVPSGAS [α-enolase peptide 26 (residues 26–40), native] | – | – | 4 µM | 1.4 µM | 0.5 µM | –
12 | LPVGAANF[Cit]EAM[Cit]IG [α-enolase peptide Cit171 (residues 171–185), citrullinated] | – | – | – | – | > 50 µM | –
13 | MSILKIHAREIFDSR [α-enolase peptide 1 (residues 1–15), native] | – | – | – | 3.5 µM | > 50 µM | –
14 | MSILKIHA[Cit]EIFDS[Cit] [α-enolase peptide Cit1 (residues 1–15), citrullinated] | – | – | – | > 50 µM | > 50 µM | –
15 | KAKFAGRNFRNPLAK [α-enolase peptide 420 (residues 420–434), native] | – | – | > 50 µM | > 50 µM | 25 µM | –
16 | K[Cit]IAKAVNEKSCNCL (cysteine pairing not given here) [α-enolase peptide Cit326 (residues 326–340), citrullinated] | – | – | 1.9 µM | > 50 µM | 0.7 µM | –
17 | KAKFAG[Cit]NF[Cit]NPLAK [α-enolase peptide Cit420 (residues 420–434), citrullinated] | – | – | > 50 µM | > 50 µM | 28 µM | –
18 | VIGMDVAASEFF[Cit]SG [α-enolase peptide Cit241 (residues 241–255), citrullinated] | – | – | 2.5 µM | 42 µM | 0.2 µM | –
19 | TSKGLF[Cit]AAVPSGAS [α-enolase peptide Cit26 (residues 26–40), citrullinated] | – | – | 1.5 µM | 1.9 µM | 0.5 µM | –
20 | KRIAKAVNEKSCNCL [α-enolase peptide 326 (residues 326–340), native] | – | – | 1.7 µM | > 50 µM | 0.7 µM | –
21 | VIGMDVAASEFFRSG [α-enolase peptide 241 (residues 241–255), native] | – | – | 2 µM | 35 µM | 0.5 µM | –

Source: paper PMC5108039, “Functional and Structural Characterization of a Novel HLA-DRB1*04:01-Restricted α-Enolase T Cell Epitope in Rheumatoid Arthritis” (Frontiers in Immunology, 2016)
